Legend:
[1] = target: N-methyl-D-aspartate receptor (NMDAR); assay: cell-based or functional assay
[2] = target: low-density-lipoprotein receptor-related protein 1 (LRP-1) (UniProt Q07954); assay: cell-based or functional assay
UniProt Q07954, sequence (Q07954 20-4544 limits assumed): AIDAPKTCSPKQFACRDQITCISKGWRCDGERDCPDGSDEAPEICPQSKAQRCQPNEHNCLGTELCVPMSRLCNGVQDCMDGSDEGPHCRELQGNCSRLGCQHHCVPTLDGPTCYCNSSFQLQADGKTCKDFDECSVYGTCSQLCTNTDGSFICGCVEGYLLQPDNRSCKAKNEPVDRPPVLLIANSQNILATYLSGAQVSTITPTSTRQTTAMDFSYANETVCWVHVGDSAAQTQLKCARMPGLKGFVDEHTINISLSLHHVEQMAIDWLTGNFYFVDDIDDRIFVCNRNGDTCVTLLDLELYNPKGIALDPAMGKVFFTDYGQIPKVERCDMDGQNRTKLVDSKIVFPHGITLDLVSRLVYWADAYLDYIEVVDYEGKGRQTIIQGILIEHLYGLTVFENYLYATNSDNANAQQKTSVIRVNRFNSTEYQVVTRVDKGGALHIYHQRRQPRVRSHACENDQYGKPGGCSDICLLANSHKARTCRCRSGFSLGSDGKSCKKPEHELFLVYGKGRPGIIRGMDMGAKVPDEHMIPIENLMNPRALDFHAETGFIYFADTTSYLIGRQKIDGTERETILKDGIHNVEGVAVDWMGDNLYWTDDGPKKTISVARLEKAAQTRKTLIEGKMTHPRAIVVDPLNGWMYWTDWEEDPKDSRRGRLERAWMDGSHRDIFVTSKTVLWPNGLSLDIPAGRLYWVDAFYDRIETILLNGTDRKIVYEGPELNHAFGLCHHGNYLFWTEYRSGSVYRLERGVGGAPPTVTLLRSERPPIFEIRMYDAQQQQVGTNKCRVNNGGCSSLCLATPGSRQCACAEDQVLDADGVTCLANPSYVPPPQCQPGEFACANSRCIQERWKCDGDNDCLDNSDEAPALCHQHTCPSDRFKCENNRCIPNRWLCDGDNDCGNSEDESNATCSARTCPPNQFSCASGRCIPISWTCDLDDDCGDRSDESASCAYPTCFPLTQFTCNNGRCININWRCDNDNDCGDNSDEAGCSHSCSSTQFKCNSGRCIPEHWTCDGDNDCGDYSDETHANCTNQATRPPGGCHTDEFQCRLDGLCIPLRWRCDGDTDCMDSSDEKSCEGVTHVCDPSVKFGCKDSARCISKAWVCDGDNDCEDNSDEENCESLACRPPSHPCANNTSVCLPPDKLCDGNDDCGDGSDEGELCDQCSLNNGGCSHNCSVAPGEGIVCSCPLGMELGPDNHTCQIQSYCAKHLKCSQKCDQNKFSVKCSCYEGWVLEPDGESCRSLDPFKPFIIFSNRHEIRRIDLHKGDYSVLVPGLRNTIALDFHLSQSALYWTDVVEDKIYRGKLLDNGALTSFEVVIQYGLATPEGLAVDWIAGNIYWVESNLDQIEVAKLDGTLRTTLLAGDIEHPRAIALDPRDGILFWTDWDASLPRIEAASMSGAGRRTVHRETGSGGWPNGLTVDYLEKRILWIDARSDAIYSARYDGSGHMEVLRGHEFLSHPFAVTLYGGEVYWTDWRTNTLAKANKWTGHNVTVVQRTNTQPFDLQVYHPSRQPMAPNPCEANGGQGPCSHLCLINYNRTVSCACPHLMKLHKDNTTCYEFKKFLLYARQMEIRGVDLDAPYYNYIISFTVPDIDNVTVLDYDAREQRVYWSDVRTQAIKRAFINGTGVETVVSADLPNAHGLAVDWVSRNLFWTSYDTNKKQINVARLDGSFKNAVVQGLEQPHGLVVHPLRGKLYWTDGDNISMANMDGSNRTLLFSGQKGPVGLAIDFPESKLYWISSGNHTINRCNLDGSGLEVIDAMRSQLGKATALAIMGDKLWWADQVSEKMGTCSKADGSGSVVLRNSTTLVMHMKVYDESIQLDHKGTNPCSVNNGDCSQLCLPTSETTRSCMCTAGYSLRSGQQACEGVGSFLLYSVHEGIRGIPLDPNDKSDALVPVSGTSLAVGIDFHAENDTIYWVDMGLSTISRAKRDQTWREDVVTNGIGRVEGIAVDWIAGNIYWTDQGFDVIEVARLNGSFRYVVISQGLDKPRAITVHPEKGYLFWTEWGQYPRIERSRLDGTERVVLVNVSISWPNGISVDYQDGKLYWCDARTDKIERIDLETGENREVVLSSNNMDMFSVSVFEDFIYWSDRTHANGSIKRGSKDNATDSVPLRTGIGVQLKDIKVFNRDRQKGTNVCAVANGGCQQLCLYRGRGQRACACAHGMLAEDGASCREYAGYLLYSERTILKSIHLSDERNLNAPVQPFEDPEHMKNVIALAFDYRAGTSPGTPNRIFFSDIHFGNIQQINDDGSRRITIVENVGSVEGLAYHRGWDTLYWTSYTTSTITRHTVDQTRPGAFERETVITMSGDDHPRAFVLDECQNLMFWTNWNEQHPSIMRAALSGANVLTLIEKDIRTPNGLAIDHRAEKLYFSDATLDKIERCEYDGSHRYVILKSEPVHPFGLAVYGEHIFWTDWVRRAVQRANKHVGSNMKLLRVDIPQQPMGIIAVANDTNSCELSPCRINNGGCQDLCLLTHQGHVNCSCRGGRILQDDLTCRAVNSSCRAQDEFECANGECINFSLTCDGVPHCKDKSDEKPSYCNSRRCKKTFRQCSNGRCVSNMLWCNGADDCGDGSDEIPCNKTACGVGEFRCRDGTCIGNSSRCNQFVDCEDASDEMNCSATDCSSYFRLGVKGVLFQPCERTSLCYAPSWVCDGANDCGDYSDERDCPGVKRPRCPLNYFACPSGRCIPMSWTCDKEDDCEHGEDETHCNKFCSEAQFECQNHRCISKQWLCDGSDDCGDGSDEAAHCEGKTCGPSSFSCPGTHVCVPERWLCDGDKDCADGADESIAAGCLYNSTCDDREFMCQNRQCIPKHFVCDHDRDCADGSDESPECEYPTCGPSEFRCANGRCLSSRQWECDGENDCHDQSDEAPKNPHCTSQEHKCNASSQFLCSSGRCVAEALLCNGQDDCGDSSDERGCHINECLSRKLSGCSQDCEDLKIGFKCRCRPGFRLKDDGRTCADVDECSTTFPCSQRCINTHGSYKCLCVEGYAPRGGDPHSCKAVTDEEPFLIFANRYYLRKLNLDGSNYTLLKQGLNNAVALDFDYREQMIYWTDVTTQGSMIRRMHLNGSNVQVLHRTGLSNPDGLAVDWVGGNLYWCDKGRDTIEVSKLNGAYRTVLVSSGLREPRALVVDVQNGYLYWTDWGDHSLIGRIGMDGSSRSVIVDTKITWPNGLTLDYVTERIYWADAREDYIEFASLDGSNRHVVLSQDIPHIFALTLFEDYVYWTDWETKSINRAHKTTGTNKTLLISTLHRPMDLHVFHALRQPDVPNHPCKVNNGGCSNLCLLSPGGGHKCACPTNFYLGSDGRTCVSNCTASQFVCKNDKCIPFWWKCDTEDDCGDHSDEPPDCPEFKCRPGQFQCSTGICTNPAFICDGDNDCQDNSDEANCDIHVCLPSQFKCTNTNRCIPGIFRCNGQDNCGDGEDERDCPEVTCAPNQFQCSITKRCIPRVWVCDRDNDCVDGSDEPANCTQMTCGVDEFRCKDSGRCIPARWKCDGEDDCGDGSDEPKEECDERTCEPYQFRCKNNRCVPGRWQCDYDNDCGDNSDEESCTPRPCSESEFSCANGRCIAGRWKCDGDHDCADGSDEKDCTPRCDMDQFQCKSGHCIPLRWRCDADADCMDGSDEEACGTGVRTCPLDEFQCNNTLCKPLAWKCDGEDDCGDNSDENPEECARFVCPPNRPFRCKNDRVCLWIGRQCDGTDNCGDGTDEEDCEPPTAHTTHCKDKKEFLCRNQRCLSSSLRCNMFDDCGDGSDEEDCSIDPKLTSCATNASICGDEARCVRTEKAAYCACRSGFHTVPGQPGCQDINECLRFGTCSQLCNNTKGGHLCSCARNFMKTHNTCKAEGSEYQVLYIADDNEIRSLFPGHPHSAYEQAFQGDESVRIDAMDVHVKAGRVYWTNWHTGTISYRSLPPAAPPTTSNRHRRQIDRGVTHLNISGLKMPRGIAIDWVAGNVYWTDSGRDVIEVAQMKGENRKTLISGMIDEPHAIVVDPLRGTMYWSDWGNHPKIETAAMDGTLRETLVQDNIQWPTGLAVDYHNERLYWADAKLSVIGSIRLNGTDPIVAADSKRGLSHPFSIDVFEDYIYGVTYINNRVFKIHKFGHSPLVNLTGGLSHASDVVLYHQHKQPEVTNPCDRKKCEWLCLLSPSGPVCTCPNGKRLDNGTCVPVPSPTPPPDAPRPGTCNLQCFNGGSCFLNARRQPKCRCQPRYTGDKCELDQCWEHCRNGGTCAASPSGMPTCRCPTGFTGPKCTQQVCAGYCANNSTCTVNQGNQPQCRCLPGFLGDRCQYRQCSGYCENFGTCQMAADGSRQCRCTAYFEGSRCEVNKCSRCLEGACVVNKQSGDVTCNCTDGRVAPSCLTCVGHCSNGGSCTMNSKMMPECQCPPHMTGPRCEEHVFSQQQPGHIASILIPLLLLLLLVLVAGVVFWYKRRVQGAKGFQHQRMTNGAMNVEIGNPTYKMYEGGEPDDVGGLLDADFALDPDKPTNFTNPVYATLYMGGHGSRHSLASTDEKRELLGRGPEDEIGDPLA

Simulated outflow facility of HTM cells in ACOS, PA+NE-tPA (no inhibitor) (µl/min/mmHg/mm^2) [1]: 0.55 | Simulated outflow facility of HTM cells in ACOS, PA+NE-tPA+MK-801 (inhibitor of NMDA receptor) (µl/min/mmHg/mm^2) [1]: 0.29 | Simulated outflow facility of HTM cells in ACOS, PA+NE-tPA+MK-801+RAP (both inhibitors) (µl/min/mmHg/mm^2) [1]: 0.33 | Simulated outflow facility of HTM cells in ACOS, PA+NE-tPA (no inhibitor) (µl/min/mmHg/mm^2) [2]: 0.55 | Simulated outflow facility of HTM cells in ACOS, PA+NE-tPA+MK-801+RAP (both inhibitors) (µl/min/mmHg/mm^2) [2]: 0.33 | Simulated outflow facility of HTM cells in ACOS, PA+NE-tPA+RAP (inhibitor of LRP1) (µl/min/mmHg/mm^2) [2]: 0.27
Substance: non-enzymatically active tPA (NE-tPA/S478A-tPA) (from UniProt P00750 36-562)

Source: US20210220450A1, “TREATMENT OF AN IOP CONDITION” (The Research Foundation for The State University of New York, priority 2013, published 2021)
